From publication PMC7997285 come the findings set out here.

This assay deals with human IRAK1 fused to the N-terminal Nanoluc fragment N67 (human) (UniProt P51617). In words: split reporter (BiFC, NanoBiT).

Some results are limits rather than exact numbers.

“CHIKV capsid protein fused to the C-terminal Nanoluc fragment C67 (from UniProt Q8JUX5) (natural protein)” yielded a fold Nanoluc activity over control reactions of more than 10 fold.

For “RRV capsid protein fused to the C-terminal Nanoluc fragment C67 (natural protein)”, the fold Nanoluc activity over control reactions was more than 10 fold.

Consider “SINV capsid protein fused to the C-terminal Nanoluc fragment C67 (from UniProt P03316) (natural protein)”, for which the fold Nanoluc activity over control reactions came to 12 fold.
